In the supplement of paper PMC10126150:
± gives the standard deviation of the averaged measurements.

Tested on: ATP
Test: switch fluorescence ratio, 500 uM ATP over buffer (Cy3 cluster intensity, sum of 5 cycles each) (fold (ratio)); higher = stronger signal-on switching upon ATP binding; sequences stand for … in TCGTCGGCAGCGTCAGATGTGTATAAGAGACAGTTTTTTTTTTTTTTTTTTTTTTTTT…TC
Conditions: aptamer strand: ATP DNA aptamer (quencher-CACCTGGGGGAGTATTGCGGAGGAAGG + anchor), 100 nM annealed; ATP concentration: 500 uM
Summary of the method: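 Imaging in selection buffer was followed by imaging after 15 min with 500 uM ATP at 22 °C, for Cy3-labelled switching-strand clusters annealed to 100 nM quencher-labelled ATP aptamer on a modified Illumina MiSeq flow-cell. Five of these buffer/ATP cycles ran, separated by NaOH stripping and re-annealing. The fluorescence ratio per cluster is summed target-cycle over summed buffer-cycle Cy3 intensity, averaged per switch-domain sequence; clusters outside 100-1000 RFU were removed.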
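Note: ATP exposure 15 min at 22 °C before imaging.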

Sequence	switch fluorescence ratio
CTTTTTAGGC	1 ± 0.043
CTTTTTCTTT	1.01 ± 0.057
CTTTTTGCAT	1.02 ± 0.013
CTTTTTGTGT	0.987 ± 0.019
CTTTTTTTTT	1.02 ± 0.063
GAAAAAAAGC	1.01 ± 0.053
GAAAAAAGCG	1.01 ± 0.041
GAAAAACCTT	3.83 ± 1.6
GAAAAAGGTG	1.1 ± 0.028
GAAAAAGGTT	0.969 ± 0.011
GAAAAAGTCA	1.01 ± 0.023
GAAAAGAGGC	1.1 ± 0.039
GAAAAGATTA	0.997 ± 0.028
GAAAAGGGT	1.08 ± 0.065
GAAAAGGTAA	1.025 ± 0.0033
GAAAATCAGC	0.976 ± 0.071
GAAAATGAAG	1.01 ± 0.031
GAAAATGTTT	1.0053 ± 2.1e-05
GAAAATTGGG	0.983 ± 0.015
GAAACCGGAT	0.966 ± 0.041
GAAACGATGT	1.08 ± 0.05
GAAACGCTTT	1.03 ± 0.057
GAAACGGCGG	1.04 ± 0.055
GAAACTAATT	0.9966 ± 0.0042
GAAACTTGAC	1.61 ± 0.039

Sequence	switch fluorescence ratio
GAAAGGAATG	1.041 ± 0.007
GAAAGGGTGG	0.9746 ± 0.0081
GAAAGGTTGG	0.993 ± 0.025
GAAAGTATAA	0.998 ± 0.013
GAAAGTTAAG	1.015 ± 0.0049
GAAAGTTTTG	1.01 ± 0.059
GAAATAAGGT	0.99 ± 0.024
GAAATAAGTG	1.04 ± 0.026
GAAATAATGT	1.03 ± 0.055
GAAATACGGT	1.19 ± 0.17
GAAATAGTTT	1.02 ± 0.021
GAAATCAGGT	1.02 ± 0.019
GAAATCGCTG	0.97 ± 0.072
GAAATGAATA	1 ± 0.011
GAAATGACTT	1.03 ± 0.015
GAAATGCTCT	1.01 ± 0.033
GAAATGGAAG	1 ± 0.038
GAAATTAGAT	1.003 ± 0.0098
GAAATTAGGA	1.01 ± 0.028
GAAATTCACA	1.04 ± 0.031
GAAATTGGGT	0.981 ± 0.018
GAACACGGCG	1 ± 0.05
GAACAGGGGG	1.01 ± 0.046
GAACATGATA	1.02 ± 0.028
GAACATTTTT	1.03 ± 0.021

Sequence	switch fluorescence ratio
GAACCAGGGG	1.27 ± 0.088
GAACCGGTAC	1.21 ± 0.019
GAACGCTGGA	1.04 ± 0.056
GAACGCTTGG	1.05 ± 0.023
GAACGGGGGT	1 ± 0.015
GAACGGGTAC	1.42 ± 0.17
GAACGTTATT	1.2 ± 0.23
GAACTATTCA	0.9848 ± 0.0054
GAACTCCGGG	1.1 ± 0.054
GAACTCGGGG	1.019 ± 0.0051
GAACTCTGGG	0.9899 ± 0.006
GAACTGCATA	1.09 ± 0.085
GAACTGGGGG	1 ± 0.019
GAACTTAAAA	1.02 ± 0.045
GAACTTCGGT	0.946 ± 0.013
GAAGAAAGCG	1.007 ± 0.0094
GAAGAAGGCT	0.89 ± 0.078
GAAGAATAGG	0.967 ± 0.015
GAAGACGGGA	1.01 ± 0.045
GAAGAGATGT	1.01 ± 0.021
GAAGAGGGGA	1.01 ± 0.013
GAAGATGAGG	1 ± 0.028
GAAGATGGTT	0.969 ± 0.018
GAAGATTTGC	0.973 ± 0.012
GAAGCAAAGG	2.04 ± 0.074

Sequence	switch fluorescence ratio
GAAGCCGGGC	1.04 ± 0.022
GAAGCTAATC	2.77 ± 0.47
GAAGCTGTTT	1.026 ± 0.0042
GAAGCTTTTT	1 ± 0.047
GAAGGAAGGT	0.9996 ± 0.007
GAAGGACAGA	1 ± 0.018
GAAGGAGGTT	1 ± 0.012
GAAGGCATTT	1.16 ± 0.28
GAAGGGAAGA	0.96 ± 0.012
GAAGGGATTT	1.13 ± 0.11
GAAGGGCTAG	0.9985 ± 0.0061
GAAGGGGCCC	1.02 ± 0.013
GAAGGGGCCG	1.12 ± 0.07
GAAGGGGGAG	0.996 ± 0.028
GAAGGGGGTG	1.02 ± 0.039
GAAGGGGTTT	0.999 ± 0.03
GAAGGTAGGT	0.98 ± 0.024
GAAGGTGGGG	0.992 ± 0.037
GAAGTACCTT	1.2 ± 0.044
GAAGTACTAT	1.2 ± 0.021
GAAGTAGCGG	1.018 ± 0.0084
GAAGTAGTAA	1.02 ± 0.03
GAAGTCCGCG	1.42 ± 0.077
GAAGTCCGGT	0.955 ± 0.024
GAAGTCTGGG	0.9767 ± 0.0021
